Source: the supplement of paper PMC9170038

Tested on: MS2 coat protein
Assay: apparent KD of MS2 coat protein; designed switch direction (-1 OFF switch, 1 ON switch): 1; higher = weaker reporter binding
Summary of the method: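 An oligonucleotide input, 200 uM small-molecule ligand, or no input was present during titration of SNAP-549-labelled MS2 coat protein, which was doubled from 0.7 or 1.5 nM to 3 µM. Designed RNA switches had been transcribed on Illumina chips by stalled E. coli RNA polymerase. Apparent KD per design is the median over clusters of curves fitted to normalised cluster fluorescence.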

[1] = input ligand: microRNA oligo, concentration not stated
[2] = Eterna round: R95, input ligand: FMN 200 uM
[3] = Eterna round: R95, input ligand: microRNA oligo, concentration not stated
[4] = Eterna round: R95, input ligand: none

| Sequence | apparent KD of MS2 coat protein (input ligand: FMN 200 uM) | apparent KD of MS2 coat protein [1] | apparent KD of MS2 coat protein (input ligand: none) | apparent KD of MS2 coat protein [2] | apparent KD of MS2 coat protein [3] | apparent KD of MS2 coat protein [4] |
| --- | --- | --- | --- | --- | --- | --- |
| UUACUCAUGUAAGGAUAUGCAGCCGAAACGGCUGCAGAAGGUACUAUAAUACAUGAGGAUCACCCAUGUCAAAAUAAUUAAAAC [Mat - Same State NG 1 - JL mod - D72] (Eterna round: R96, puzzle: Same State NG 1) | 34.8 nM | 26 nM | 26.9 nM | – | – | – |
| GAGUUACUAUCUCAGGAUAUCAUGUCAAAGACAUGAGGAUCACCCAUGUACCAGGAAACUGGUUAUGAGAAGGGAGAUAGUAACA [Mat - Same State 2 - Mod - D51] (puzzle: Same State 2) | – | – | – | 113 nM | 9.6 nM | 14.4 nM |
| UUUGCAUUGCAAGGAUAUUGAUAACAUGAGGAUCACCCAUGUAUAGGUUCAGGAUUUACGAGUAACAAGAAGGUGCUAUUGUUU [JR_SSNG2_Sub040] (Eterna round: R96, puzzle: Same State NG 2) | 27.6 nM | 20.7 nM | 31.8 nM | – | – | – |
| AUUAUUAAUGCAGGAUAUGAUUAACAUGAGGAUCACCCAUGUGGUGUUGUGAGUAAGGAGAGUGAUCAGAAGGGCAUUUUUUGU [JMF's solution 16] (Eterna round: R96, puzzle: Same State NG 2) | 798 nM | 264 nM | 615 nM | – | – | – |
| AAAGAAAACGCAGGAUAUCCCGGAAUGGAAACGGGAGAAGGGUGACCGGUACAUGAGGAUCACCCAUGUAGAGCACAGGCUCAA [Sousdi] (Eterna round: R96, puzzle: Same State NG 1) | 3380 nM | 39.4 nM | 922 nM | – | – | – |
| AUAAGGCAAGCUUUUUUCUCGUAGUGUAAACAUGAGGAUCACCCAUGUGCCCACCCUGGAUCUUUGGAUCCCAGAAC [Sobeedbeon] (puzzle: Sensor for hsa-mir-208a) | – | – | – | 23 nM | 15.3 nM | 22.4 nM |
| ACGCAGCUGGGUGAGGAUAUCGGUGGUAAAACAUGAGGAUCACCCAUGUCCGAAGCUCGGACCUCCGAGAAGGCGCCCGGCUGCG [Soinraesar Omei Mod 1] (puzzle: Same State 2) | – | – | – | 5.47 nM | 5.25 nM | 5.11 nM |
| AUUAUUAAUAUAGGAUAUGUAAAACAUGAGGAUCACCCAUGUGAUAUCGUGAGUAAGGAGAGAGAACAGAAGGAUAAUUUUUUU [JMF's solution 1] (Eterna round: R96, puzzle: Same State NG 2) | 38.1 nM | 30.9 nM | 41.3 nM | – | – | – |
| GUAGCAUACCGAGGAUAUUCAUAUAAUAAAUACAUGAGGAUCACCCAUGUAAGGCGAAAGCCUUGGGAGAAGGCGGAAUGCUAC [Xeonanis - 20 Mod59] (Eterna round: R96, puzzle: Same State NG 2) | 12.6 nM | 31.9 nM | 36.3 nM | – | – | – |
| UGUUGUAUUACAGGAUAUCUAGUAUGUUUAUUUAGAGAAGGGUAUUCACAUGAGGAUCACCCAUGUAUAUACGAGGAAGUUGUG [JMF's solution 38] (Eterna round: R96, puzzle: Same State NG 1) | – | 30.8 nM | – | – | – | – |
| ACAAAGAACACAGGAUAUCGGAAAGGAAGUGUACGAGAAGGGUGGUCAACAGUACAUGAGGAUCACCCAUGUGGUGGAUGGCAA [PowerStrip SSNG 1.12] (Eterna round: R96, puzzle: Same State NG 1) | 177 nM | 2.42 nM | 1440 nM | – | – | – |
| CAGUACUGUCGAGAGGAUAUGCGGUGAUGGACAUGAGGAUCACCCAUGUUAGCGACAGCAUCACGGCAGAAGGCUCUACUGCUGC [Soteed Omei mod 33] (puzzle: Same State 2) | – | – | – | – | 39.4 nM | – |
| UUGAGAUGUACAGGAUAUGGUGAGGAUCACCCACUAGAAGGGUGCACAUGUGAAUCGGACAUGAGGAUCACCCAUGUUGGGCGU (Eterna round: R96, puzzle: Same State NG 1) | 108 nM | 224 nM | 209 nM | – | – | – |
| GAGUAGGAGUUACAGGAUAUAUGGAGGAGGACAUGAGGAUCACCCAUGUGAGAGAUGAGAGGAGGAUAGAAGGGUAAGGGAGUAA [JR_SS2_Sub028] (puzzle: Same State 2) | – | – | – | 24 nM | 20.6 nM | 46.2 nM |
| ACCCAAAGUAUAUGGGAACAAGCUUUUUAACAUGAGGAUCACCCAUGUACUCGUCUUGUAAGCAGUCGAAAGACUGC [Sensor 100 - 1] (puzzle: Sensor for hsa-mir-208a) | – | – | – | 312 nM | 17.4 nM | 368 nM |
| AGCGUCCACACAGGAUAUCACCUGCACUGCAGGUGAGAAGGGUGACCGGUGCGCAAUAACGACAUGAGGAUCACCCAUGUAAAA [Vegea] (Eterna round: R96, puzzle: Same State NG 1) | 775 nM | 38.3 nM | 143 nM | – | – | – |

| Sequence | apparent KD of MS2 coat protein (input ligand: FMN 200 uM) | apparent KD of MS2 coat protein [1] | apparent KD of MS2 coat protein (input ligand: none) | apparent KD of MS2 coat protein [2] | apparent KD of MS2 coat protein [3] | apparent KD of MS2 coat protein [4] |
| --- | --- | --- | --- | --- | --- | --- |
| UGAGCCGGCACUGAGGAUAUUCAUAUUUAAACAUGAGGAUCACCCAUGUAGGCCAGAAGGCCUUGGGAGAAGGCAGGUCGGCUCC [salish99_ss2_r3_079] (puzzle: Same State 2) | – | – | – | 25.7 nM | 264 nM | 459 nM |
| GUACUACAUGAGGAUCACCCAUGUACGCCAGUACGAGGAUAUGCAUGGGCGCUAGCUGGUGCAGAAGGCGUAGUGC [Pin2Pin #6] (puzzle: Same State 1) | – | – | – | 21 nM | 24 nM | 45.5 nM |
| UUGCUCGUGUGAGGAUAUGCAGCCGUUUCGGCUGCAGAAGGUACUAUAAUACAUGAGGAUCACCCAUGUCUCUAUUAUUUAGUG [salish99_SSNG1_r04_926] (Eterna round: R96, puzzle: Same State NG 1) | 19.5 nM | 19.2 nM | 28.7 nM | – | – | – |
| GUUAAACAUGAGGAUCACCCAUGUCAAUGUAGUCGAGGAUAUGGGCAGCUAUGAGGCGUACUAGAAGGCGAAGAGU [Mat - Same State 1 - Mod of JL - D12] (Eterna round: R96, puzzle: Same State 1) | – | 224 nM | – | – | – | – |
| AGGGAGGAAGCUGAGGAUAUCGUAAGGAGGACAUGAGGAUCACCCAUGUGUAUAGAAUUGGAGGACGAGAAGGCAGAGGAGUGGG [JR_SS2_Sub052] (puzzle: Same State 2) | – | – | – | 25.5 nM | 29.3 nM | 25.6 nM |
| UGUAAACAUGAGGAUCACCCAUGUUUUUUCAUGGGAGGAUAUCUGAGUUAAGUAUAUUAAGGAGAAGGCCUAUUGU [× ×•×ª×• ×ž×“×™× ×” × ×—×ª-02] (puzzle: Same State 1) | – | – | – | 83.8 nM | 78 nM | 286 nM |
| AAAAUGGUAUGUUACAUGAGGAUCACCCAUGUACCGUCAUCUGAGGAUAUGGUGAUGUAGAAGAAUCAGAAGGCAGACAUUUAA [AK SSNG3-V2-25] (Eterna round: R96, puzzle: Same State NG 3) | 17.3 nM | 20 nM | 34.1 nM | – | – | – |
| AAUUAAUUAAUUAAUAUACAUGAGGAUCACCCAUGUAAGAUCAAGGAUAUCAGCUCGAUUAGAGCUGAGAAGGUGAUCACAUGU [SSNG3/16-A2] (Eterna round: R96, puzzle: Same State NG 3) | – | 207 nM | – | – | – | – |
| AAACUACAUGAGGAUCACCCAUGUGAAAACCGCAUAGGAUAUCCGCAGCAAUGAGCUGACGGAGAAGGGUGACCGG [Riater] (puzzle: Same State 1) | – | – | – | 175 nM | 103 nM | 276 nM |
| UUAAUUAAUUAAUUAUACAUGAGGAUCACCCAUGUAAGUGAUCAGGAUAUCAGCUCGAUUAGAGCUGAGAAGGGAUACAUGAAU [SSNG3/12-A2] (Eterna round: R96, puzzle: Same State NG 3) | 94.4 nM | 88.3 nM | 139 nM | – | – | – |
| GGAGCCGGCACUGAGGAUAUUCAUAUUAAAACAUGAGGAUCACCCAUGUGGGCCAGAAGGCCUUGGGAGAAGGCAGGUCGACUCG [Diqureveri - 3] (puzzle: Same State 2) | – | – | – | 18.5 nM | 145 nM | 243 nM |
| CGUCCGGCCUGUGCUGGCCGGUUGCUUGUACAUGAGGAUCACCCAUGUUCUUGUGCUGGCUUUUUGCUCGUCUUGUG [salish99_mir208a_019] (puzzle: Sensor for hsa-mir-208a) | – | – | – | 31.5 nM | 19.2 nM | 37.8 nM |
| AUUGCUAGCACAGGAUAUCAUGCGAAAAUUGCGUGAGAAGGGUGGACACUGUCAUUCACGGAGGACAUGAGGAUCACCCAUGUC [SameState NG1 #79] (Eterna round: R96, puzzle: Same State NG 1) | 77.1 nM | 59 nM | 74.9 nM | – | – | – |
| AUGGUGCAGGUACAGGAUAUGUUGCUCGUAACAUGAGGAUCACCCAUGUACCUAUGAGAUUAAAUGCAGAAGGGUGCACACCAAA [Mat - Same State 2 - Mod of UCT - D90] (Eterna round: R96, puzzle: Same State 2) | 38.1 nM | 224 nM | 1350 nM | – | – | – |
| GUGCUCGUGUGAGGAUAUGUUGCCGGGUCGGCUGCAGAAGGUACUAUUAUACAUGAGGAUCACCCAUGUCGCUUUUCUCCGGUA [salish99_SSNG1_r04_921] (Eterna round: R96, puzzle: Same State NG 1) | 88 nM | 49.6 nM | 73.5 nM | – | – | – |
